In a protein production outcome set (Wang et al. 2014):

Assay: label from the status in PepcDB records
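Note: failed if final PepcDB status was selected cloned or expressed and not failed if soluble or beyond.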

| Sequence | protein production |
| --- | --- |
| LKDIETACKLLNITADPMDWSPSNVQKWLLWTEHQYRLPPMGKAFQELAGKELCAMSEEQFRQRSPLGGDVLHAHLDIWKSAA | not failed |
| MSIKYLYDRKKIAVTYGEEKYSYADIIKYVNYYSEFLDISKGDRVALMMENRPESIFSFFSIWAKKGIALSLDAGYTVEQLAFVLNDSKPKYIFVSNKIKEVVEKANEQVGNIVKIMVVDEITLPTDYVIKQEEYENDSNEDLAVIVYTSGTTGNPKGVMITYENIKTNMEGVRAVDLVTETDVILAMLPYHHIMPLCFTLILPMYMGVPIVLLTEISSASLLKALQENRVTVILGVPRVWEMLDKAIMTKINQSSLAKFMFKMASKINSMSIRKMLFSKVHKQFGGNIRLMVSGGAKIDKNILEDFRTMGFCAIQGYGMTETAPIITFNVPGRERSDSAGEVIPNVEVKIADDGEILVKGKNVMKGYYNNEQATKEAFDKDGWFHTGDLGKMDGKYLIIIGRKKEMIVLPNGKNIDPNDIEAEIIKNTDLIKEIAVTEYKEQLLAIIYPDFDQIKAKQIVNIKDAIKWEVIDKYNVTAPNYKKIHDIKIVKEELPKTRIGKIRRFMLKDLIEEKTENTDKKEAKKIIEVPAEMKEKFDIINKYMDERYQKAIDLDSHIELDLGFDSLDIVEFMNFLNSTFEITIVEQDFVENKTISAIIKLINDKAGKLVEKIDKNENLKKIIESDSNVKLPKDARYAKVLKFILSLMFRYYFKYKYRGKENLGEGAGIIVGNHQSYLDAFMLNNAFTYKELGGNYYIATALHFKSNFMKYLAGHGNIILVDANRNLKNTLQAAAKVLKSGKKLLIFPEGARTRDGQLQEFKKTFAILSKELNVPIYPFVLKGAYEAFPYNKKFPKRNNISVQFLEKIEPNDKTVEELVEETKNNIAKNYY | failed |
| MAKYETPPPVRPLEKLITDFSYTNGLDPVNVFNDFLTYIIHGFSPGAPPLQNWKYKRLQNMKFMEMLTGWVQLMASRIKDDTSWYDPFGDLYMALVSKSAQQSQGQFFTPVHICDLMVLCTQTEEKMTGQRMGDPTCGSGRLLLAYHARNPENYLIGEDINRTCCLMTVCNMLIHGCVGEVICHDSLNPGNFVDGWKVNPMLTWTGIPTIKRMNMKEYRAGRNLPASPYIIRKTMLAGSRKHKTDSLLPLQAVFKMLEHHHHHH | not failed |
| DDPEQFEVIKQQKEIIEHGIELFNKKPKRGIQFLQEQGMLGTSVEDIAQFLHQEERLDSTQVGDFLGDSARFNKEVMYAYVDQLDFCEKEFVSALRTFLEGFRLPGEAQKIDRLMEKFAARYIECNQGQTLFASADTAYVLAYSIIMLTTDLHSPQVKNKMTKEQYIKMNRGINDSKD | failed |
| KSLTLVLHRDSGSLGFNIIGGRPSVDNHDGSSSEGIFVSKIVDSGPAAKEGGLQIHDRIIEVNGRDLSRATHDQAVEAFKTAKEPIVVQVLRRT | not failed |
| MFANKILTEKDTDQIRFSILASGSSGNATLVETGDQKILIDCGLSGKKMEGLFAQVGRDMNDLDAILITHEHSDHIKGLGVLARKYKLPIYANAKTWKAMDNMIGEVSSDQKFQFDMETVKNFGSMQVESFGVSHDAIEPMFYIFHKGNKKFVMITDTGYVSDRMKGHIAGADAYLFESNHDVEMLRMGRYPWNVKRRILGDEGHVSNEDAAIAMSEVITDQTKRIYLGHLSKDNNMKELARMSVTQTLMAEGIDVGGKLEIFDTDPDNATSIFTILEHHHHHH | failed |
| MKIPSVFMLEQQKASLQLHVKQLANEAIQKSAPSAWFEVLYAEAQGDTTQIPWAKLTPHPYLQEWLTNHQPFPSGQKALVIGCGLGDDAEALAKLGFAVTAFDISPTAIAWCGQRFPNSNVNYIVADLLAIPPQWHLAFDFVFECRNIQALPLNIRAEVITSIASVVAPDGTLLLINRVRLEHHHHHH | failed |
| MNRICELLGIEHPIISGGMVWCSGWKLASAVSNCGGLGLIGAGSMHPDNLEHHIRSCKAATDKPFGVNVPLLYPEMDKIMEIIMREHVPVVVTSAGSPKVWTAKLKAAGSKVIHV | failed |
| ASEGEKHITVTVIHGDQTENVFEFDTDAKYLGEVLESENLVDGESGEYGLFITTVDEETADDSKQQWWCITKGGEQVNTSADQTPVSDGDAFELTLKEGY | not failed |
| TAEEVVTVALRCPSGNVLRRRFLKSYSSQVLFDWMTRIGYHISLYSLSTSFPRRPLAVEGGQSLEDIGITVDTVLILEEKE | failed |
| IIGNAEAICLPELGITHLEARIDTGAQTSSLHVDNIDCFEKDGQSYVAFDLHPDVYHLEQVVRCTAKLKANRKVKSSNGTFEHRCVITTMLRLGDQEWPIDITLTNREKMTYMMLLGRQGMADKVLVDPSQSH | failed |
| MDLCRSSILLLIIALLSPRTLSMRYELKSSKTKCIGEEIHENAMSIGKYFIVNPNEDNHPLPDSHKIIVKVMPPQGKNLHEADKVEAGQFSFTAYENGSYVACITAIDYKPETTLTIDFDWKTGVHSKEWTNVAKKSQVDMMEYQVKTLMDTVISIHEEMYYLREREEEMQELNRSTNSKMAWLSFGSLVVCLSVAGLQFWHLKTFFEKKKLI | failed |
| AAGSENTNYFISLEQGEFVLTLVERGPVQEMPFFIELLDVLHDANLPVPYALRTTDGQALRELAGKPALLQPRLPGKHISEPNTQHCVQIGELLANLHLATREQVLERKTDRGLDWMLSEGRNFLSHLGETQRALLEKSLQEIEDLKPQIMALPRANLHADLFRDNVLFEGTHLTGLIDFYNACSGPMLYDLAIALNDWCSRENG | failed |
| MNTLYTLFATCPRGLETVLSQELGSLGCTDVQAFDGGVSCRGGLEQAYAANLHSRTAGRILLRLTKGTYRTERDIYKLAKNINWFNWFTLQQTFKVKIEAKRANVKSLQFAGLTVKDAVCDAFRDIYDARPSVDKAAPDVRIHAFLDERNVEIFIDTSGEALFKRGYRLDTGEAPLRENLAAGLLLSAGYDGTQPFQDPFCGSGTIAIEAAWIAAGRAPGMMRRFGFEKLQNFDKTLWADLRRRAEAQTRPVRAPIAGSDNGRRIVQTALDNAHNAGADDIVSFSVAGAQSVRPNGENGIMVSNPPYGVRLEEVRALQALYPQLGTWLKKHYAGWRVGMFTGDREMPKFMRLLPKRKIPLYNGNIDCRLFLIDMVQGSNR | not failed |
| MAEKQKHDGRVKIGHYVLGDTLGVGTFGKVKIGEHQLTGHKVAVKILNRQKIRSLDVVGKIKREIQNLKLFRHPHIIKLYQVISTPTDFFMVMEYVSGGELFDYICKHGRVEEMEARRLFQQILSAVDYCHRHMVVHRDLKPENVLLDAHMNAKIADFGLSNMMSDGEFLRTSCGSPNYAAPEVISGRLYAGPEVDIWSCGVILYALLCGTLPFDDEHVPTLFKKIRGGVFYIPEYLNRSVATLLMHMLQVDPLKRATIKDIREHEWFKQDLPSYLFPEDPSYDANVIDDEAVKEVCEKFECTESEVMNSLYSGDPQDQLAVAYHLIIDNRRIMNQASEFYLASSPPSGSFMDDSAMHIPPGLKPHPERMPPLIADSPKARCPLDALNTTKPKSLAVKKAKWHLGIRSQSKPYDIMAEVYRAMKQLDFEWKVVNAYHLRVRRKNPVTGNYVKMSLQLYLVDNRSYLLDFKSIDDEVVEQRSGSSTPQRSCSAAGLHRPRSSFDSTTAESHSLSGSLTGSLTGSTLSSVSPRLGSHTMDFFEMCASLITTLAR | failed |
| MATQAAGIFSPAITTTTSAVKKLHLFSSSHRPKSLSFTKTAIRAEKTESSSAAPAVKEAPVGFTPPQLDPNTPSPIFAGSTGGLLRKAQVEEFYVITWNSPKEQIFEMPTGGAAIMREGPNLLKLARKEQCLALGTRLRSKYKITYQFYRVFPNGEVQYLHPKDGVYPEKANPGREGVGLNMRSIGKNVSPIEVKFTGKQSYDL | failed |
| MVSDAALHGKLAVEHASDHLVVLAQADSGPITVDQFKEKLKEVQQEEQLGWLTAIGKYFIGIFQKGGEVFAGFVTGIIPTLVVLMTAFYAVTELVGEERVHGLARGAGRIALTRYTLLPLLAVFFLTNPMAYTFGSFLEEKHKPAFYDAAVSYVHPPLGLFPHINPGEYFVWGGILVALLELEKKGVVVAGYHVKVAIWYAIVGLVVILLKGMLTERITTIMARRQGVEL | failed |
| MPQFASKAEEKNYYERQASLAEFLTWYHQQELPEYEKPSLTVDMVLLCYNKEADQLKVLLIQRKGHPFRNSWALPGGFVNRNESTEDSVLRETKEETGVVISQENIEQLHSFSRPDRDPRGWVVTVSYLAFIGEEPLIAGDDAKEVHWFNLERHGQHITLSHEDVEITLDLKTAASLGKDTLAFDHSEIIIKAFNRVVDKMEHEPQVLQVLGKDFTITEARKVFAKFLGVDYRSIDHSNFKKAMTQYFEELGERPVGIGRPSKIYQLKTTTGF | not failed |
| MGDNWRYEVKYDGFRTILFWTKETIRLESRNERLLTDQFPEIHDFCQRISNKVEAWLPITIDGELVHLVSPYRAHFAPIQTRSFMRKHETIAASSIKTPATLLAFDILELKGKTLVDLPYDERKKQLKALLKAIDVPLEHHHHHH | failed |
| MKLSIVIVNYRVPYFLEQCLLSVRKSAQGIDTEVWVVDNNSGDGSVEYLQSRFPEVHFVANEENVGFSRANNQAIRLSKGQYVLLLNPDTLIGESTLRTVVDFMDSKPNAGGLGVKMLNGHGRFLPESKRGFPSPWVSFCKLSGLNRLFPHSSRFNRYHLSYLSRDEVHKVEVLSGAFMLMRREALDKVGLLDERFFMYGEDIDLSYRLILGGYDNYYYPTPILHYKGESSSVSDVKYLRSFYGAMGLFFDKYYRNRMNPLLHGLINVVIKARTALALMLRSLRKVPAAEKPAKIFYWHPSEGEAAISAYHDRSHILINTDEVTCDRLLLTMEKLADRKHTFHLTNDTTKRVISP | failed |
| MPHLRFRAVEAHIVESLVPTLLNELSSLLSTARNAFTFELINTQYFAEGGVYPMVEVLWFGREQQTQDQIAQVITDQIRQLLGADSHLAVVFIPLQRTAYYLDGQHF | not failed |
| RSSEWLEKWQFVNGRFREHLQTISSEDVSFEGNLYRILQHLVPENSSLFVGNSMPIRDVDTFFEKQDRPFRIYSNRGANGIDGVVSSAMGVCEGTKAPVTLVIGDLSFYHDLNGLLAAKKLGIPLTVILVNNDGGGIFSFLPQASEKTHFEDLFGTPTGLDFKHAAALYGGTYSCPASWDEFKTAYAPQADKPGLHLIEIKTDRQSRVQLHRDMLNEAVREVKKQWEL | failed |
| MSEAERAGASRQDKSGRLLAGRYRLGDVLGRGGMGTVWRAEDETLGRTVAVKELRFPTSIDEDEKRRLITRTLREAKAIARIRNNSAVTVFDVVDEDNRPWIVMELVEGKSLAEAIREDGLLEPKRAAEVGLAILDVLRAAHREGILHRDVKPSNVLIAEDGRVVLTDFGIAQVEGDPSITSTGMLVGAPSYISPERARGHKPGPAADLWSLGGLLYASVEGVPPYDKGSAIATLTAVMTEPLEEPKNAGPLRSVIYGLLAKDPEQRLDDAGARAMLNEVLHAPQPKEPEPVDATRVVALPPVPEEGTGKGSSGGSGAKRGEEAADRFRGALRSVRKAAGAATASAAARAKSGGTDVSGGTGAAGAGTSSAGSSASASAPAPGKPGAAAVGKPNPSSAGKPGSSAAATPAGTGSGVGQGTAVGGGGRESAVVGSNSGPVKPSSGWPVVPEPDRPPRSVPRAPLTDVVPRRTLVIVAVVVVLAVLGVVLALTLGGDDGSSKDNKGSSDTKAAASSGTSSGTTAGSSGTPKAGGSGSGSGGTHTDSGSKDNTGTGSDEQETDDSSSAGTASGSGGSDDSGSGSGDSSVKTYKSSQGFSIGLPKGWKYQSTGAAGARFTGPDGQKLLVGWTTTPKDDPVADWKNQEQYMVRSQYKRIRIEQVDYRGWNTADWEFTYTEGGTKYRSIDRGFVVNAHQGYALMYTAKASEWDSDLRKDTWQTLAKTFQPKS | failed |
| MRPAVIAATGLYTPPDSVSNAELVEAFNTYVANFNAANKARIEAGEIEPLQPSSSEFIEKASGIKSRYVVAKPGIVDPDVMRPIIPERSNDELSILAEMAVTAAEQAIERWGKPRERIGAVLCACSNMQRAYPAMAIEVQNALGLGGFAFDMNVACSSATFGLKTAADFVGGGSVDAVLMVNPEICSGHLNFRDRDSHFIFGDVATAAIVERADDAQGGWS | failed |
